From patent US20080181887A1 (published 2008)

T1: murine FcRn (murine, UniProt P01887 21-119, limits assumed)
T1 construct: the whole entry is named; also called mouse FcRn; muFcRn
T1 sequence: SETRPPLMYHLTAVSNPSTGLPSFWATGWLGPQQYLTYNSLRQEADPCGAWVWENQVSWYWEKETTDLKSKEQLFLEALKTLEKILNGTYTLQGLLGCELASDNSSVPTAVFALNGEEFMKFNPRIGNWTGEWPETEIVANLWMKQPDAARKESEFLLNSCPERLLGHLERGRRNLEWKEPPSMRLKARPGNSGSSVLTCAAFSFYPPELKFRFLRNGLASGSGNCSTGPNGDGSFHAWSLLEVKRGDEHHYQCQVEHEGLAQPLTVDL
T1 sequence (b2m): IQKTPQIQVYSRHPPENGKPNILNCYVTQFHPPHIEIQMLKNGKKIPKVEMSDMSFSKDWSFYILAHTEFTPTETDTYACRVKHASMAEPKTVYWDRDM


How the values were obtained:
[1] = target: T2, human FcRn (human); assay: BIAcore SPR, equilibrium binding with Scatchard analysis, soluble human FcRn over immobilized IgG1, pH 6.0
T2 construct: mature; Soluble heterodimer from baculovirus-infected High-Five cells, purified on IgG Sepharose; also called recombinant human FcRn; the human receptor
Method: (§1) The interaction of soluble murine and human FcRn with immobilized human IgG1 variants was monitored by surface plasmon resonance detection using a BIAcore 3000 instrument (Pharmacia Biosensor, Uppsala, Sweden). […] Protein concentrations were calculated by the bicinchoninic acid (BCA) method for both human and murine FcRn or using the 1% extinction coefficient at 280 m of 1.5 for IgG1 wild type and variants. The latter were coupled to the dextran matrix of a CM5 sensor chip (Pharmacia Biosensor) using an Amine Coupling Kit as described (Johnson et al., supra). The protein concentrations ranged from 3-5 μg/ml in 10 mM sodium acetate, pH 5.0. The activation period was set for 7 minutes at a flow rate of 10 μl/min and the immobilization period was set to between 10 and 20 minutes at a flow rate of 10 μl/min. Excess reactive esters were quenched by injection of 70 μl of 1.0 methanolamine hydrochloride, pH 8.5. […] Human and murine FcRn were buffer exchanged against 50 mM PBS buffer pH 6.0 containing 0.05% Tween 20. Dilutions were made in the same buffer. All binding experiments were performed at 25 C. with concentrations ranging from 120 to 1 μg/ml at a flow rate of 5 to 10 μl/min; data were collected for 25 to 50 minutes and three 1-minute pulses of PBS buffer pH 7.2 were used to regenerate the surfaces. FcRn was also flowed over an uncoated cell and the sensorgrams from these blank runs subtracted from those obtained with IgG1-coupled chips. Runs were analyzed using the software BIAevaluation 3.1 (Pharmacia). Association constants (KAS) were determined from Scatchard analysis by measuring the concentration of free reactants and complex at equilibrium after correction for nonspecific binding.

[2] = target: T1, murine FcRn; assay: BIAcore SPR, equilibrium binding with Scatchard analysis, soluble murine FcRn over immobilized IgG1, pH 6.0
Method: as §1

[3] = target: T2, human FcRn; assay: BIAcore SPR, soluble human FcRn over immobilized IgG1, pH 6.0
Method: (§2) The interaction of soluble murine and human FcRn with immobilized human IgG1 variants was monitored by surface plasmon resonance detection using a BIAcore 3000 instrument (Pharmacia Biosensor, Uppsala, Sweden). […] Protein concentrations were calculated by the bicinchoninic acid (BCA) method for both human and murine FcRn or using the 1% extinction coefficient at 280 m of 1.5 for IgG1 wild type and variants. The latter were coupled to the dextran matrix of a CM5 sensor chip (Pharmacia Biosensor) using an Amine Coupling Kit as described (Johnson et al., supra). The protein concentrations ranged from 3-5 μg/ml in 10 mM sodium acetate, pH 5.0. The activation period was set for 7 minutes at a flow rate of 10 μl/min and the immobilization period was set to between 10 and 20 minutes at a flow rate of 10 μl/min. Excess reactive esters were quenched by injection of 70 μl of 1.0 methanolamine hydrochloride, pH 8.5. […] Human and murine FcRn were buffer exchanged against 50 mM PBS buffer pH 6.0 containing 0.05% Tween 20. Dilutions were made in the same buffer. […] Runs were analyzed using the software BIAevaluation 3.1 (Pharmacia). Association constants (KAS) were determined from Scatchard analysis by measuring the concentration of free reactants and complex at equilibrium after correction for nonspecific binding.

[4] = target: T1, murine FcRn; assay: BIAcore SPR, soluble murine FcRn over immobilized IgG1, pH 6.0
Method: as §2

[5] = target: T1, murine FcRn; assay: BIAcore SPR, Scatchard analysis of FIG. 7A, murine FcRn 1 nM to 556 nM over 4000 RU of immobilized IgG1
Method: Runs were analyzed using the software BIAevaluation 3.1 (Pharmacia). Association constants (KAS) were determined from Scatchard analysis by measuring the concentration of free reactants and complex at equilibrium after correction for nonspecific binding. […] The concentration of free analyte (human or murine FcRn) is equal to the bulk analyte concentration since analyte is constantly replenished during sample injection. The concentration of free ligand on the surface of the sensor chip can be derived from the concentration of the complex and from the total binding capacity of the surface as KA=Req/C(Rmax-Req) where C is the free analyte concentration, Req is the steady-state response, and Rmax is the total surface binding capacity. Rearranging, the equation reads: Req/C=KA Rmax-KA Req.
In all cases, equilibrium (or near-equilibrium) binding levels were reached within 50 minutes. To estimate the increase in RU resulting from the non specific effect of protein on the bulk refractive index, binding of FcRn to an uncoated cell was measured and the sensorgrams from these blank runs subtracted from those obtained with IgG1-coupled chips.

T2 sequence (chain, as listed by the source limits assumed, chain 1 of 2): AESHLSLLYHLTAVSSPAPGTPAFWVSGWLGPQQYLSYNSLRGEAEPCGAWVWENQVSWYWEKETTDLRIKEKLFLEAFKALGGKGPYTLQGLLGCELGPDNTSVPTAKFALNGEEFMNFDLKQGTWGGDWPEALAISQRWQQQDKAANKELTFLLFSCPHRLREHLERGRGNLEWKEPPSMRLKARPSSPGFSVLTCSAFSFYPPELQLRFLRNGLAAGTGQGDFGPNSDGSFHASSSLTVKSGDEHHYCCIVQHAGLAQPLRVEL
T2 sequence (P61769 21-119 limits assumed, chain 2 of 2): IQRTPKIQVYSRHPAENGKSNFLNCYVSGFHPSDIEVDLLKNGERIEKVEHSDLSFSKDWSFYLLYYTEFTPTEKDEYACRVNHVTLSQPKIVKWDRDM

Row | Binder | ΔΔG (ΔG wild type - ΔG mutant) [1] | Kd [2] | ΔΔG (ΔG wild type - ΔG mutant) [2] | binding result [3] | binding result [4] | Kd [5]
1 | human IgG1 MEDI-493 (SYNAGIS) G385R/Q386T/P387R/N389P (antibody, HEK 293, protein A purified; not shown: human IgG1 heavy chain CH1 domain (between VH and hinge-Fc); human kappa light chain constant domain) heavy (part 1 of 2): QVTLRESGPALVKPTQTLTLTCTFSGFSLSTSGMSVGWIRQPPGKALEWLADIWWDDKKDYNPSLKSRLTISKDTSKNQVVLKVTNMDPADTATYYCARSMITNWYFDVWGAGTTVTVSS heavy (part 2 of 2): EPKSCDKTHTCPPCPAPELLGGPSVFLFPPKPKDTLMISRTPEVTCVVVDVSHEDPEVKFNWYVDGVEVHNAKTKPREEQYNSTYRVVSVLTVLHQDWLNGKEYKCKVSNKALPAPIEKTISKAKGQPREPQVYTLPPSREEMTKNQVSLTCLVKGFYPSDIAVEWESNRTREPNYKTTPPVLDSDGSFFLYSKLTVDKSRWQQGNVFSCSVMHEALHNHYTQKSLSLSPGK light: DIQMTQSPSTLSASVGDRVTITCKCQLSVGYMHWYQQKPGKAPKLLIYDTSKLASGVPSRFSGSGSGTEFTLTISSLQPDDFATYYCFQGSGYPFTFGGGTKLEIK | 1.26 kJ/mol |  |  |  |  | 
2 | human IgG1 MEDI-493 (SYNAGIS) H433K/N434F/Y436H (antibody, HEK 293, protein A purified; not shown: human IgG1 heavy chain CH1 domain (between VH and hinge-Fc); human kappa light chain constant domain) heavy (part 1 of 2): QVTLRESGPALVKPTQTLTLTCTFSGFSLSTSGMSVGWIRQPPGKALEWLADIWWDDKKDYNPSLKSRLTISKDTSKNQVVLKVTNMDPADTATYYCARSMITNWYFDVWGAGTTVTVSS heavy (part 2 of 2): EPKSCDKTHTCPPCPAPELLGGPSVFLFPPKPKDTLMISRTPEVTCVVVDVSHEDPEVKFNWYVDGVEVHNAKTKPREEQYNSTYRVVSVLTVLHQDWLNGKEYKCKVSNKALPAPIEKTISKAKGQPREPQVYTLPPSREEMTKNQVSLTCLVKGFYPSDIAVEWESNGQPENNYKTTPPVLDSDGSFFLYSKLTVDKSRWQQGNVFSCSVMHEALKFHHTQKSLSLSPGK light: DIQMTQSPSTLSASVGDRVTITCKCQLSVGYMHWYQQKPGKAPKLLIYDTSKLASGVPSRFSGSGSGTEFTLTISSLQPDDFATYYCFQGSGYPFTFGGGTKLEIK | 4.6 kJ/mol | 0.014 µM | 7.53 kJ/mol |  |  | 
3 | human IgG1 MEDI-493 (SYNAGIS) M252W (antibody, HEK 293, protein A purified; not shown: human IgG1 heavy chain CH1 domain (between VH and hinge-Fc); human kappa light chain constant domain) heavy (part 1 of 2): QVTLRESGPALVKPTQTLTLTCTFSGFSLSTSGMSVGWIRQPPGKALEWLADIWWDDKKDYNPSLKSRLTISKDTSKNQVVLKVTNMDPADTATYYCARSMITNWYFDVWGAGTTVTVSS heavy (part 2 of 2): not shown light: DIQMTQSPSTLSASVGDRVTITCKCQLSVGYMHWYQQKPGKAPKLLIYDTSKLASGVPSRFSGSGSGTEFTLTISSLQPDDFATYYCFQGSGYPFTFGGGTKLEIK | 4.6 kJ/mol | 0.03 µM | 5.44 kJ/mol |  |  | 
4 | human IgG1 MEDI-493 (SYNAGIS) N434F/Y436H (antibody, HEK 293, protein A purified; not shown: human IgG1 heavy chain CH1 domain (between VH and hinge-Fc); human kappa light chain constant domain) heavy (part 1 of 2): QVTLRESGPALVKPTQTLTLTCTFSGFSLSTSGMSVGWIRQPPGKALEWLADIWWDDKKDYNPSLKSRLTISKDTSKNQVVLKVTNMDPADTATYYCARSMITNWYFDVWGAGTTVTVSS heavy (part 2 of 2): not shown light: DIQMTQSPSTLSASVGDRVTITCKCQLSVGYMHWYQQKPGKAPKLLIYDTSKLASGVPSRFSGSGSGTEFTLTISSLQPDDFATYYCFQGSGYPFTFGGGTKLEIK | 4.18 kJ/mol | 0.009 µM | 8.37 kJ/mol |  |  | 
5 | human IgG1 MEDI-493 (SYNAGIS) I253A (antibody, HEK 293, protein A purified; also called 1253A; not shown: human IgG1 heavy chain CH1 domain (between VH and hinge-Fc); human kappa light chain constant domain) heavy (part 1 of 2): QVTLRESGPALVKPTQTLTLTCTFSGFSLSTSGMSVGWIRQPPGKALEWLADIWWDDKKDYNPSLKSRLTISKDTSKNQVVLKVTNMDPADTATYYCARSMITNWYFDVWGAGTTVTVSS heavy (part 2 of 2): not shown light: DIQMTQSPSTLSASVGDRVTITCKCQLSVGYMHWYQQKPGKAPKLLIYDTSKLASGVPSRFSGSGSGTEFTLTISSLQPDDFATYYCFQGSGYPFTFGGGTKLEIK |  |  |  | no binding (tested: FcRn 1 to 120 µg/ml) | no binding (tested: FcRn 1 to 120 µg/ml) | 
6 | human IgG1 MEDI-493 (SYNAGIS) M252Y/S254T/T256E (antibody, HEK 293, protein A purified; also called IgG1/M252Y/S254T/T256E; not shown: human IgG1 heavy chain CH1 domain (between VH and hinge-Fc); human kappa light chain constant domain) heavy (part 1 of 2): QVTLRESGPALVKPTQTLTLTCTFSGFSLSTSGMSVGWIRQPPGKALEWLADIWWDDKKDYNPSLKSRLTISKDTSKNQVVLKVTNMDPADTATYYCARSMITNWYFDVWGAGTTVTVSS heavy (part 2 of 2): EPKSCDKTHTCPPCPAPELLGGPSVFLFPPKPKDTLYITREPEVTCVVVDVSHEDPEVKFNWYVDGVEVHNAKTKPREEQYNSTYRVVSVLTVLHQDWLNGKEYKCKVSNKALPAPIEKTISKAKGQPREPQVYTLPPSREEMTKNQVSLTCLVKGFYPSDIAVEWESNGQPENNYKTTPPVLDSDGSFFLYSKLTVDKSRWQQGNVFSCSVMHEALHNHYTQKSLSLSPGK light: DIQMTQSPSTLSASVGDRVTITCKCQLSVGYMHWYQQKPGKAPKLLIYDTSKLASGVPSRFSGSGSGTEFTLTISSLQPDDFATYYCFQGSGYPFTFGGGTKLEIK | 5.86 kJ/mol | 0.027 µM | 5.86 kJ/mol |  |  | 0.024 µM
7 | human IgG1 MEDI-493 (SYNAGIS) M252Y/T256Q (antibody, HEK 293, protein A purified; not shown: human IgG1 heavy chain CH1 domain (between VH and hinge-Fc); human kappa light chain constant domain) heavy (part 1 of 2): QVTLRESGPALVKPTQTLTLTCTFSGFSLSTSGMSVGWIRQPPGKALEWLADIWWDDKKDYNPSLKSRLTISKDTSKNQVVLKVTNMDPADTATYYCARSMITNWYFDVWGAGTTVTVSS heavy (part 2 of 2): not shown light: DIQMTQSPSTLSASVGDRVTITCKCQLSVGYMHWYQQKPGKAPKLLIYDTSKLASGVPSRFSGSGSGTEFTLTISSLQPDDFATYYCFQGSGYPFTFGGGTKLEIK | 3.77 kJ/mol |  |  |  |  | 
